Measurements taken from the supplement of paper PMC9732359.
± gives the uncertainty stated by the source.

Assay: protein stability index of a GFP-peptide fusion (yeast GPS) (PSI 1-4); higher = more stable; sorted into four equal gates, so the index is relative within each strain
In short: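 Plasmids isolated from each sorting gate were PCR-amplified and Illumina-sequenced, and barcodes assigned the reads to strains. The gates, four of equal size, were set by GFP/Cherry fluorescence ratio on mid-log cultures in leucine-free medium. These cultures were yeast carrying a pooled library of tiled 17-residue yeast protein peptides fused downstream of GFP on a plasmid that also expresses Cherry. The protein stability index is the sum of every gate's read frequency times its gate number.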

Row | Sequence | protein stability index (doa10∆) | protein stability index (pdr5∆) | protein stability index (san1∆) | protein stability index (ubr1∆)
1 | EHRIRVFFDKRIGQEVD [RPS6A] | 3.25 ± 0.14 | 3.09 ± 0.14 | 2.6 ± 0.29 | 2.87 ± 0.2
2 | AVLSYYKVDAEGKVTKL [RPS31] | 2.98 ± 0.11 | 2.99 ± 0.13 | 3.03 ± 0.083 | 3.27 ± 0.065
3 | RDDEPKLYQTEPSGIYS [PRE6] | 3.14 ± 0.058 | 3.07 ± 0.082 | 3.09 ± 0.051 | 3.18 ± 0.046
4 | LSAADIVAQSEVEVSTR [RPO31] | 2.33 ± 0.09 | 2.53 ± 0.11 | 2.54 ± 0.094 | 2.84 ± 0.068
5 | SHLWEIDIPLDEQAFYN [RPC37] |  | 2.45 ± 0.27 | 2.98 ± 0.24 | 
6 | TLQDIGFYQIKKIVDSK [YMR129W/POM152] | 2.64 ± 0.095 | 2.68 ± 0.1 | 2.89 ± 0.17 | 2.97 ± 0.12
7 | SNFTSIIGPNGSGKSNM [SMC1] | 3.33 ± 0.13 | 3.04 ± 0.15 | 3.37 ± 0.12 | 3.46 ± 0.093
8 | ETKWDDADEKSSNLYET [YJR042W/NUP85] |  | 3.22 ± 0.15 | 3.02 ± 0.13 | 3.25 ± 0.097
9 | MFNNHEIDTILSTLRME [RPN9] |  | 3.51 ± 0.2 | 2.84 ± 0.13 | 3.03 ± 0.071
10 | NGNDESSEYETINISLS [NUT1] | 3.16 ± 0.12 | 3.32 ± 0.2 | 3.06 ± 0.12 | 3.58 ± 0.25
11 | SNTNDNISIITLELESF [RGR1] | 2.54 ± 0.075 | 2.39 ± 0.081 | 2.25 ± 0.098 | 2.32 ± 0.11
12 | KKPRKPRQTKKAKAQAQ [PGD1] | 3.2 ± 0.13 | 3.48 ± 0.096 | 3.22 ± 0.062 | 3.12 ± 0.1
13 | SVKGKVVIDAFRLIDTG [RPN11] | 1.83 ± 0.12 | 2.38 ± 0.099 | 1.92 ± 0.15 | 1.79 ± 0.061
14 | KNNLLIPDLSIQNDIYL [RPN12] | 2.93 ± 0.046 | 3.02 ± 0.038 | 2.98 ± 0.035 | 2.92 ± 0.047
15 | CRNDAVNWLAYTYLYVR [BRR2] | 3.25 ± 0.063 | 3.54 ± 0.046 | 3.18 ± 0.046 | 3.21 ± 0.043
16 | LNLSLHKLDLAKRNLDA [SMC2] | 2.28 ± 0.046 | 2.78 ± 0.043 | 2.62 ± 0.047 | 2.17 ± 0.029
17 | DGLIAPGVRVSGEDVII [RPB2] | 3.05 ± 0.12 | 2.69 ± 0.085 | 3.29 ± 0.16 | 2.67 ± 0.095
18 | TEVSRKSMKYVKKILPL [ECM29] | 2.34 ± 0.28 | 1.5 ± 0.24 |  | 1.18 ± 0.16
19 | KGVATTREKVLEDKLRA [RRP46] | 3.36 ± 0.15 | 3.16 ± 0.12 | 2.71 ± 0.23 | 3.04 ± 0.075
20 | LQMRLKESEISHNENKM [YIL149C/MLP2] | 2.94 ± 0.065 | 2.96 ± 0.068 | 3.18 ± 0.068 | 3.18 ± 0.09
21 | EKVILVQEQLSKNRIIV [RET1] | 1.63 ± 0.087 | 1.38 ± 0.084 | 1.5 ± 0.11 | 1.37 ± 0.052
22 | LYDSLASTPSIRPDGRL [RRP42] | 2.64 ± 0.14 | 2.81 ± 0.096 | 2.4 ± 0.18 | 2.99 ± 0.088
23 | SEPIDLIIIEKKQKLIE [ITC1] |  |  | 2.87 ± 0.18 | 2.69 ± 0.13
24 | TNAKLPNVDLVTALEVL [RGR1] | 2.09 ± 0.089 | 2.28 ± 0.052 | 2.44 ± 0.07 | 2.26 ± 0.061
25 | INYLLTLAITTVTNSKF [RPN2] | 2.22 ± 0.062 | 2.91 ± 0.078 | 2.1 ± 0.074 | 2.67 ± 0.067
26 | QHTSFQEAVNSLKGYKI [CSI1] | 3.15 ± 0.1 | 3.21 ± 0.065 | 3.35 ± 0.048 | 3.39 ± 0.067
27 | HIQVNQAPKQRRRTYRA [RPL17A] | 1.89 ± 0.12 | 2.34 ± 0.11 | 2.38 ± 0.2 | 3.28 ± 0.14
